Experimental data reported in patent US20260217833A1 (APTEVO RESEARCH AND DEVELOPMENT, published 2026).
Residue numbers refer to the chain shown, from its start.

B1: CD4001081 (bispecific antibody)
Fc-knob x CD40_1D5: EPKSSDKTHTCPPCPAPPAAAPSVFLFPPKPKDTLMISRTPEVTCVVVDVSHEDPEVKFNWYVDGVEVHNAKTKPREEQYNSTYRVVSVLTVLHQDWLNGKEYKCAVSNKALPAPIEKTISKAKGQPREPQVYTLPPSRDELTKNQVSLWCLVKGFYPSDIAVEWESNGQPENNYKTTPPVLDSDGSFFLYSKLTVDKSRWQQGNVFSCSVMHEALHNHYTQKSLSLSPGGGGSPSDIVMSQSPSSLAVSVGEKVTMSCKSSQSLLFSVNQKNYLAWYQQKPGQSPKLLIYWASTRESGVPDRFTGSGSGTDFTLTIGSVKAEDLAVYYCQHYYSYPWTFGGGTKLEIKGGGGSGGGGSGGGGSGGGGSQVQLQQSGAELMNPGASVRISCKATGYTFSTSWIEWIKQRPGHGLEWIGEILPGSGSTNYNEKFKGKATFTADTSSNTAYMQLSSLTFEDSAVYYCARGDDGSYVRWYFDVWGAGTTVTVSS
PDL_5F9 x Fc-Hole x CD40_1D5: EVQLVESGGGLVKPGGSLRLSCAASGFTFSDYGMAWVRQAPGKGLEWVAFITSLAYIIYYADSVKGRFTISRDNAKNSLYLQMNSLRAEDTAVYYCARNYGSSPYYFDYWGQGTLVTVSSGGGGSGGGGSGGGGSGGGGSDIQMTQSPSSLSASVGDRVTITCRASQDINKFLSWYQQKPGKAPKLLIHYTSSLQPGVPSRFSGSGSGTDFTLTISSLQPEDFATYYCLQYDNLYTFGQGTKLEIKEPKSSDKTHTCPPCPAPPAAAPSVFLFPPKPKDTLMISRTPEVTCVVVDVSHEDPEVKFNWYVDGVEVHNAKTKPREEQYNSTYRVVSVLTVLHQDWLNGKEYKCAVSNKALPAPIEKTISKAKGQPREPQVYTLPPSRDELTKNQVSLSCAVKGFYPSDIAVEWESNGQPENNYKTTPPVLDSDGSFFLVSKLTVDKSRWQQGNVFSCSVMHEALHNRFTQKSLSLSPGGGGSPSDIVMSQSPSSLAVSVGEKVTMSCKSSQSLLFSVNQKNYLAWYQQKPGQSPKLLIYWASTRESGVPDRFTGSGSGTDFTLTIGSVKAEDLAVYYCQHYYSYPWTFGGGTKLEIKGGGGSGGGGSGGGGSGGGGSQVQLQQSGAELMNPGASVRISCKATGYTFSTSWIEWIKQRPGHGLEWIGEILPGSGSTNYNEKFKGKATFTADTSSNTAYMQLSSLTFEDSAVYYCARGDDGSYVRWYFDVWGAGTTVTVSS
B2: CD4001076 (bispecific antibody)
PDL_5F9 x Fc-Knob: EVQLVESGGGLVKPGGSLRLSCAASGFTFSDYGMAWVRQAPGKGLEWVAFITSLAYIIYYADSVKGRFTISRDNAKNSLYLQMNSLRAEDTAVYYCARNYGSSPYYFDYWGQGTLVTVSSGGGGSGGGGSGGGGSGGGGSDIQMTQSPSSLSASVGDRVTITCRASQDINKFLSWYQQKPGKAPKLLIHYTSSLQPGVPSRFSGSGSGTDFTLTISSLQPEDFATYYCLQYDNLYTFGQGTKLEIKEPKSSDKTHTCPPCPAPPAAAPSVFLFPPKPKDTLMISRTPEVTCVVVDVSHEDPEVKFNWYVDGVEVHNAKTKPREEQYNSTYRVVSVLTVLHQDWLNGKEYKCAVSNKALPAPIEKTISKAKGQPREPQVYTLPPSRDELTKNQVSLWCLVKGFYPSDIAVEWESNGQPENNYKTTPPVLDSDGSFFLYSKLTVDKSRWQQGNVFSCSVMHEALHNHYTQKSLSLSPG
PDL_5F9 x Fc-Hole x CD40_2H7: EVQLVESGGGLVKPGGSLRLSCAASGFTFSDYGMAWVRQAPGKGLEWVAFITSLAYIIYYADSVKGRFTISRDNAKNSLYLQMNSLRAEDTAVYYCARNYGSSPYYFDYWGQGTLVTVSSGGGGSGGGGSGGGGSGGGGSDIQMTQSPSSLSASVGDRVTITCRASQDINKFLSWYQQKPGKAPKLLIHYTSSLQPGVPSRFSGSGSGTDFTLTISSLQPEDFATYYCLQYDNLYTFGQGTKLEIKEPKSSDKTHTCPPCPAPPAAAPSVFLFPPKPKDTLMISRTPEVTCVVVDVSHEDPEVKFNWYVDGVEVHNAKTKPREEQYNSTYRVVSVLTVLHQDWLNGKEYKCAVSNKALPAPIEKTISKAKGQPREPQVYTLPPSRDELTKNQVSLSCAVKGFYPSDIAVEWESNGQPENNYKTTPPVLDSDGSFFLVSKLTVDKSRWQQGNVFSCSVMHEALHNRFTQKSLSLSPGGGGSPSDIVMTQSHKFMSTSVGDRVSITCKASQDVNTAVAWYQQKPGQSPKLLIYSASYRYTGVPDRFTGSGSGTDFTFTISSVQAEDLAVYYCQQHYSTPWTFGGGTKLEIKGGGGSGGGGSGGGGSGGGGSQVQLQQSGAELAKPGASVKMSCKASGYAFTTYWMHWVKQRPGQGLEWIGYINPTTGYTDYNQKFKDKATLTADKSSSTAYMQLSSLTSEDSAVYYCARWGLPPFAYWGQGTLVTVSA
B3: CD4001078 (bispecific antibody)
PDL_5F9 x Fc-Knob: B2 PDL_5F9 x Fc-Knob
PDL_5F9 x Fc-Hole x CD40_1D5: B1 PDL_5F9 x Fc-Hole x CD40_1D5
B4: CD4001072 (bispecific antibody)
Fc-Knob x PDL_5F9: EPKSSDKTHTCPPCPAPPAAAPSVFLFPPKPKDTLMISRTPEVTCVVVDVSHEDPEVKFNWYVDGVEVHNAKTKPREEQYNSTYRVVSVLTVLHQDWLNGKEYKCAVSNKALPAPIEKTISKAKGQPREPQVYTLPPSRDELTKNQVSLWCLVKGFYPSDIAVEWESNGQPENNYKTTPPVLDSDGSFFLYSKLTVDKSRWQQGNVFSCSVMHEALHNHYTQKSLSLSPGGGGSPSEVQLVESGGGLVKPGGSLRLSCAASGFTFSDYGMAWVRQAPGKGLEWVAFITSLAYIIYYADSVKGRFTISRDNAKNSLYLQMNSLRAEDTAVYYCARNYGSSPYYFDYWGQGTLVTVSSGGGGSGGGGSGGGGSGGGGSDIQMTQSPSSLSASVGDRVTITCRASQDINKFLSWYQQKPGKAPKLLIHYTSSLQPGVPSRFSGSGSGTDFTLTISSLQPEDFATYYCLQYDNLYTFGQGTKLEIK
CD40_1D5 x Fc-Hole x PDL_5F9: DIVMSQSPSSLAVSVGEKVTMSCKSSQSLLFSVNQKNYLAWYQQKPGQSPKLLIYWASTRESGVPDRFTGSGSGTDFTLTIGSVKAEDLAVYYCQHYYSYPWTFGGGTKLEIKGGGGSGGGGSGGGGSGGGGSQVQLQQSGAELMNPGASVRISCKATGYTFSTSWIEWIKQRPGHGLEWIGEILPGSGSTNYNEKFKGKATFTADTSSNTAYMQLSSLTFEDSAVYYCARGDDGSYVRWYFDVWGAGTTVTVSSEPKSSDKTHTCPPCPAPPAAAPSVFLFPPKPKDTLMISRTPEVTCVVVDVSHEDPEVKFNWYVDGVEVHNAKTKPREEQYNSTYRVVSVLTVLHQDWLNGKEYKCAVSNKALPAPIEKTISKAKGQPREPQVYTLPPSRDELTKNQVSLSCAVKGFYPSDIAVEWESNGQPENNYKTTPPVLDSDGSFFLVSKLTVDKSRWQQGNVFSCSVMHEALHNRFTQKSLSLSPGGGGSPSEVQLVESGGGLVKPGGSLRLSCAASGFTFSDYGMAWVRQAPGKGLEWVAFITSLAYIIYYADSVKGRFTISRDNAKNSLYLQMNSLRAEDTAVYYCARNYGSSPYYFDYWGQGTLVTVSSGGGGSGGGGSGGGGSGGGGSDIQMTQSPSSLSASVGDRVTITCRASQDINKFLSWYQQKPGKAPKLLIHYTSSLQPGVPSRFSGSGSGTDFTLTISSLQPEDFATYYCLQYDNLYTFGQGTKLEIK
B5: CD4001075 (bispecific antibody)
CD40_1D5 x Fc-Knob: DIVMSQSPSSLAVSVGEKVTMSCKSSQSLLFSVNQKNYLAWYQQKPGQSPKLLIYWASTRESGVPDRFTGSGSGTDFTLTIGSVKAEDLAVYYCQHYYSYPWTFGGGTKLEIKGGGGSGGGGSGGGGSGGGGSQVQLQQSGAELMNPGASVRISCKATGYTFSTSWIEWIKQRPGHGLEWIGEILPGSGSTNYNEKFKGKATFTADTSSNTAYMQLSSLTFEDSAVYYCARGDDGSYVRWYFDVWGAGTTVTVSSEPKSSDKTHTCPPCPAPPAAAPSVFLFPPKPKDTLMISRTPEVTCVVVDVSHEDPEVKFNWYVDGVEVHNAKTKPREEQYNSTYRVVSVLTVLHQDWLNGKEYKCAVSNKALPAPIEKTISKAKGQPREPQVYTLPPSRDELTKNQVSLWCLVKGFYPSDIAVEWESNGQPENNYKTTPPVLDSDGSFFLYSKLTVDKSRWQQGNVFSCSVMHEALHNHYTQKSLSLSPG
CD40_1D5 x Fc-Hole x PDL_5F9: B4 CD40_1D5 x Fc-Hole x PDL_5F9
B6: CD4001086 (Fc fusion)
chain: EVVMTQSPGTLSLSPGERATLSCRSSQSLVHYNGYTYLHWYQQKPGQAPRLLIYKVSNRFSGIPARFSGSGSGTDFTLTISRLEPEDLAVYFCSQTTHVPLTFGQGTKVEIKGGGGSGGGGSGGGGSGGGGSEVQLVESGGGLVQPGRSLRLSCAASGFTFSSYAMSWVRQAPGKGLEWVASISSAGTYIYYADSVQGRFTISRDNGKNSLYLQMNSLRAEDTALYYCARHGNGYDPLWYFDVWGQGTMVTVSS
notes: Partly humanized 5B9 scFv on the N-terminus of a wildtype IgG1 Fc; not shown: wildtype IgG1 Fc region
B7: CD4001097 (Fc fusion)
chain: B6 chain with E133Q, Q145K, R148G, Q197K, G207A, L225V, Q246A, M249T
notes: As m65; not shown: wildtype IgG1 Fc region
B8: CD4001087 (Fc fusion)
chain: EVVMTQSPDTLSVSPGERATLSCRSSQSLVHYNGYTYLHWYQQKPGQVPRLLIYKVSNRFSGVPARFTGSGSGTEFTLTISSLQSEDFAVYFCSQTTHVPLTFGQGTKLEIKGGGGSGGGGSGGGGSGGGGSEVQLVESGGGLVQPGRSLRLSCAASGFTFSSYAMSWVRQAPGKGLEWVASISSAGTYIYYADSVQGRFTISRDNGKNSLYLQMNSLRAEDTALYYCARHGNGYDPLWYFDVWGQGTMVTVSS
notes: as for B7
B9: CD4001091 (Fc fusion)
chain: DVQMTQSPILLSASVGDRVTITCRSSQSLVHYNGYTYVHWYQQRTNGSPRLLIYKVSNRFSGVPDRFSGSGSGTDFTLTISSLQPEDIADYFCQQTTHVPLTFGAGTKVEIKGGGGSGGGGSGGGGSGGGGSEVQLVESGGGVVQPGRSLRLSCAASGFTFSSYAMSWVRQAPGKGLEWVASISSAGTYIYYADSVKGRFTISRDNSKNTLYLQMNGLRAEDTAVYYCARHGNGYDPLWYFDVWGQGTLVTVSS
notes: as for B7
B10: CD4001094 (Fc fusion)
chain: B9 chain with V137L, V143L, R148G, A193T, T201S, G217S, L249T
notes: as for B7
B11: CD4001098 (Fc fusion)
chain: B9 chain with E133Q, V143L, Q145K, R148G, S207A, T210S, G217S, Q246A, L249T
notes: as for B7
B12: CD4001096 (Fc fusion)
chain: B9 chain with E133Q, V143L, R148G, E178V, S207A, N216T, G217S, V225I, T248A
notes: as for B7

target: T1, Human PD-L1 full-length (human, UniProt Q9NZQ7 19-290); assay: flow cytometry, CHOK1SV/human PD-L1 cells
T1 construct: also called PDL01021; CHOK1SV/huPDL1
T1 sequence (Q9NZQ7 19-290): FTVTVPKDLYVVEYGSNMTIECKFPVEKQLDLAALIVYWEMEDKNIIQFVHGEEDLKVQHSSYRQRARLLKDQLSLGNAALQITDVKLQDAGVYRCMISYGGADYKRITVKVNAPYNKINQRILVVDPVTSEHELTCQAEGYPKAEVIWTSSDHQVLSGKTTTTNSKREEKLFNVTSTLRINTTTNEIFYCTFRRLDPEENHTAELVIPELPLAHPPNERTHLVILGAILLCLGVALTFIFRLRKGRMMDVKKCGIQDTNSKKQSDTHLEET

Binder | binding result
B1 | binds
B2 | binds
B3 | binds
B4 | binds
B5 | binds

target: T2, human CD40 full-length (human, UniProt P25942 21-277); assay: flow cytometry, CHOK1SV/human CD40 cells
T2 construct: Also used for CD40 of Daudi cells, of CD40-expressing HEK293 cells and of the BPS CD40/NFkB HEK293 reporter cells where the row says so; also called CD4001012; CHOK1SV/CD40
T2 sequence (P25942 21-277): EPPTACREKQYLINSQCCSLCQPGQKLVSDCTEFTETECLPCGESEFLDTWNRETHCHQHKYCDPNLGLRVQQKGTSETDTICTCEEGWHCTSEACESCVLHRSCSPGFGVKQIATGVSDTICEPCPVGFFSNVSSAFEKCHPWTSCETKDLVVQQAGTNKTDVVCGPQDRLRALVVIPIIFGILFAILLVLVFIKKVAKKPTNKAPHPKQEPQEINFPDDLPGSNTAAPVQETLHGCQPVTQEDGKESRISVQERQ

Binder | EC50 (read off the curve) | binding result
B6 | ~2 nM | 
B7 | ~4 nM | 
B8 |  | binds
B9 |  | binds
B10 |  | binds
B11 |  | binds
B12 |  | binds
